Laboratory results published in the nanobody polyreactivity screen of Harvey et al. (2022).

Assay: yeast display, Sf9 membrane polyspecificity reagent, FACS + sequencing; frameworks hold sequencing errors
In short: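 Genes from sorted yeast were amplified by colony PCR, read by MiSeq 2 × 250 sequencing and filtered on CDR length. These cells carried a synthetic nanobody library in Saccharomyces cerevisiae BJ5465 and were sorted by FACS into low and high (top ~1%) gates on anti-HA and streptavidin fluorescence. Polyreactivity is labelled according to the gate of origin.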

Sequence: QVQLVESGGGLVQAGGSLRLSCAASGITFPGYARGWYRQAPGKASELVAAIDWSGDGTYYADSVKGRFTISRDNAKNTVYLQMNSLKPEDTAVYYCAKDNYPNHCTVRAVIYDYWGQGTQVTVSS
- polyreactivity (PSR sort gate): low polyreactivity

Sequence: QVQLVDSVGGLVQAGASLRLSCAASGSIFYYYAMGWYREAPGKERELVAAIRYRGGRTYYADSVKGRFTISRDNAKNTVYLQMNSLKPEDTAVYYCNADVIRRGGSRYSSGRDFDYWGQGTQVTVSS
- polyreactivity (PSR sort gate): high polyreactivity

Sequence: QVQLVESGGGLDQAGGSLRLSCADSGYILDRNAMGWYRHAPGKETALVAVISWGGTRTYYADSVKGRFTISRDNAKNTVYLQMISLKPEDTAVYYCARYPYYYGYAGRYDYWGQGTQVTVSS
- polyreactivity (PSR sort gate): high polyreactivity

Sequence: QVQLVESGGGLVQAGGSLRLSCPASGSTFTLYVMGWYRPAPGKERELVAAISSNGGRTYYADSVKGRFTISRDNAKNTVYLQMNSLKPEDTAVYDCAAGKIGRYHYDYWGQGTQVTVSS
- polyreactivity (PSR sort gate): high polyreactivity

Sequence: QVQLVESGGGLVQAGGSLRLSCAASGRTFYKNTMGWYRQAPGKERELVATISQRGGSTYYADSVKGRFTISRDNAKNTVYLQMNSLKPEDTAVYYCNARRTSYTSQGYDYWGQGTQVTVSS
- polyreactivity (PSR sort gate): high polyreactivity

Sequence: QVQLVESGGGLVQAGGSLRLSCAASGSTFKWYTMGWYRQAPGNEREFVAAISSSGGRTYYADSVKGRFTISRDNAKNTDYLQMNCLKPEDTAVYFCAAGYLYQFRAATFGYWGQGTQVTVSS
- polyreactivity (PSR sort gate): high polyreactivity

Sequence: QVQLVESGGGLVQAGGSLRLSCAASGFTFGWYAMGWYRQAPGKEREFVATITYSGGSTYYADSVKGRFTISRDNAKNTVYLQMNSLKPEDTAVYYCAAARYWYRRFDYWGQGTQVTVSS
- polyreactivity (PSR sort gate): high polyreactivity

Sequence: QVQLVESGGGLVQAGGSLRLSCAASGSTLAPYVMGWYSQAPGKERELVAVISTRTGRTYYADSVKGRFTISRDNAKNTVSLQMNSLKPEDTAVYYCNAYPHAYTGSTREGDYWGQGTQVTVSS
- polyreactivity (PSR sort gate): high polyreactivity

Sequence: QVQLVESGGGLVQAGGSLRLSCAASGYTFSRYAMGWYRQAPGKERELVAAITSRGGRTYYADSVKVRFTISRDNAKNTVFLQMNSLKPEDNAVYYCAADVIFWRTGYDYWGPGTQVTVSS
- polyreactivity (PSR sort gate): high polyreactivity

Sequence: QVQLVESGRRLVQAGGSLRLSCAASGRIFGAYARGWSRQAPGKEREMVAAITSRGGNTYYADSVKGRFTISRDNAKNTVYLQMNSLKPEDTAVYYCRYDIWVWWSGAYDYWGQGTQVTVSS
- polyreactivity (PSR sort gate): low polyreactivity

Sequence: QVQLVESGGGLDQAGGSLRLSCAASGSIFKLNARGWYREAPGKERELVAAITSVGRTYYADSVKGRFTISRDNAKKTVYLQMNSLKPEDTAVYYCGAARYGVYWYGYWGQGTQVTVSS
- polyreactivity (PSR sort gate): high polyreactivity

Sequence: QVQLVESGGGLVQAGGSLRLTCAASGFIFQIYAMGWYRQAPGKERELVAAISSGGSTNYADSVKGRFTISRDNAKNTVYLQMNSLKPEDTAVYYCAAATQYWYFYSFKDKSGFRGYYWGQGTQVTVSS
- polyreactivity (PSR sort gate): high polyreactivity

Sequence: QVQLVESGGGLVQAGGSLRLSCAASGRTIGVYAMGWYRQAPGKERELVAGITTSGDSTYYADSVKGRFTISRDNAKNTVYLQMNSLKPEDTAVYYCNADVLFFYTPTSEYDYWGQGTQVTVSS
- polyreactivity (PSR sort gate): low polyreactivity

Sequence: QFQLVESGGGLVQAGGSLRLSCASSGSTFGYNAMGWYRQAPGKESELVAAISYSGGSTSYADSVKGRFTISRDNAKNTVYLQMNSLKPEDSAVYYCASDSYSQYSSQALEGFGYWGQGTQVTVSS
- polyreactivity (PSR sort gate): low polyreactivity

Sequence: QVQLVESGGGLVQAGGSLRLSCAASGSILTDYAMGWYRQAPGKERELVATISNGGSTNYADSVKGRFTISRDNAKNTVYLQMNSLKPEDTAVYYCNAEPGVPSWELDYWGQGTQVTVSS
- polyreactivity (PSR sort gate): low polyreactivity

Sequence: QVQLVESGGGLVQAGGSLRLSCAASGSISEIYAMGWYRQAPGKERELVAAISWSGGRTYYADSVKGRFTISRDNAKNTVYLQMNSLKPEDTAVYYCAARYRGGYYFGYEPYYYWGQGTQVTVSS
- polyreactivity (PSR sort gate): high polyreactivity

Sequence: QVQLVESGGGLVQAGGSLLISCAASGRIFYYNTMGWSRQEPGKESELVAAITTNGGSTYYADSVKGRFTISRDNAKITVYLQMNSLNPEDTAVYYCNRDRYPYYSAYNYWGQGTQVTVSS
- polyreactivity (PSR sort gate): low polyreactivity

Sequence: QVHLVESGGGLVQAGGSLRLSCAASGFTFRYYAMGSYRQAPGKERELVASIRRIGGSTYYADSVKGRFTISRDNAKNTVYLQMNSLKPDDTAVYYCAASTNFYYNPEYDSWGQGTQVTVSS
- polyreactivity (PSR sort gate): low polyreactivity

Sequence: QVQLVESGGGLVQAGGSLRLSSASSGSTSWIYAMGWYRPEPGKERELVAAISGRDGSTNYADSVKGRFTISRDNAKNTVYLQMIRVKPEDTAVYDCNATGRSFKRYGGDYWGQGTQVTVSS
- polyreactivity (PSR sort gate): high polyreactivity

Sequence: HVQLVESGGGLVQAGGSLRLSCAASGSIFSENTMGWYRQAPGKEWELVAAISWSGGSTNYADSVKGRFTISRDNAKNTVYLQMNSLKPEDTAVYYCAKDVGSADPTYYYWGQGTQVTVSS
- polyreactivity (PSR sort gate): low polyreactivity

Sequence: QVQLVESGGGLVQAGGSLRLSCAASGRTFLLYAMGWYRPAPGKERELVAAIRSSTVSTYYADSVKGRFTISRDNAKNTVYLQMNSLKPEDTAVYYCAASRPKYGPSGVRYNYWGQGTQVTVSS
- polyreactivity (PSR sort gate): high polyreactivity

Sequence: QVQLVESGVGLVQAGGSLLLSCAASGRTFSYNPMGSYRQAPGKERELVALISSGGSTNYADSVKGRFTISRDNAKNTVYLQMNSLKPEDTALYYCNAGSYVWEEDYWGQGTQVTVSS
- polyreactivity (PSR sort gate): high polyreactivity

Sequence: QVQLVESVGGIVQAGGSLRLSCAASGGICYEYAMGWYRQAPGKERELVATISFNVASTYADSVKGRFTISRDNAKNTVYLQMNSLKPEDTAVDYCIADTYWDRDSRYDYWGLGTQVTVSS
- polyreactivity (PSR sort gate): low polyreactivity

Sequence: QVQLVESGGGLVQAGGSLRLSCAASGIIFIGNAMGWYRQAPGKERELVAAISWNGVRTYYADSVKGRFTISRDNAKNTVYLQMNSLKPEYTAVYYCAAVTRRGIKLDYWGQGTQVTVSS
- polyreactivity (PSR sort gate): high polyreactivity

Sequence: QVQLVESGGGLVQAGGSLRLSCAASGRTLGVYAMGWSRQAPGKERELVAAIRYRGGITYYADSVKGRFTISRDNAKNTVYLQMNSLKPEDTAVYYCAADWAWDTKSAPAYPRAYDYWGQGTQVTVSS
- polyreactivity (PSR sort gate): low polyreactivity

Sequence: QVQLVESGGGLVQAGGSLRLSCAASGYIFGSYVMGGYRQAPGKERELVAAITRIGASTYYADSVKGRFTISRDNAKNTVYLQMNSLKPEDTAVYYCATDQGGYYENDYWGQGTQVTVSS
- polyreactivity (PSR sort gate): low polyreactivity

Sequence: QVQLVESGGGLVQAGGSLRLSCAASGFTFTYYAMGWYRQAPGKERELVAAITKSGGSTYYADSVKGRFTISRDNAKNTVYFQMNSLKPEDTAVYYCAADTRYGRERYYWGQGTQVTVSS
- polyreactivity (PSR sort gate): high polyreactivity

Sequence: QVKLVESGGGLVQAGGSLRLSCAASGNTFGGYAMGWYRQAPGKERELVAAISSSGGSTYYADSVKGRFTISRDNAKNTVYLQMNSLKPEDTAVYYCAAYGGFYGYWTMGYWGQGTQVTVSS
- polyreactivity (PSR sort gate): high polyreactivity

Sequence: QVLLVESGGRLVQAGGSLRLSSAASGRTLNINAMGWYRQAPGKERELVAVISFNGGGTYYADSVKGRFTISRDNGKNTVYLQMNSLKPEDTAVYYCNAVRDRYASDYWGQGTQVTVTS
- polyreactivity (PSR sort gate): low polyreactivity

Sequence: QVQLVESGGGLVQAGASLRLSCAASGFTFDSYAMGWYRQAPGKDRELVAVISATGAITYYADSVKGRFTISRDNAKNTVYLPMNSLKPEDTAVYYCAVQVSWSYYRYGYWGQGTQVTVSS
- polyreactivity (PSR sort gate): low polyreactivity

Sequence: QVQLVESGGCLVQAGGSLRLSCAASGSTLRYYAMGWYRQAPGKERELDARIRSNGGSTYYADSVKGRFTISRDNANNTVYLQMNSLKPEETAVYYCAARTYRGQYYTGFGFGYWGQGSQVTVSS
- polyreactivity (PSR sort gate): high polyreactivity
